The record followed here is US7091311.

This test has as its target murine receptor (mouse) (UniProt Q08351). Description: cell-based or functional assay.

murine receptor (mouse), sequence (Q08351 26-625): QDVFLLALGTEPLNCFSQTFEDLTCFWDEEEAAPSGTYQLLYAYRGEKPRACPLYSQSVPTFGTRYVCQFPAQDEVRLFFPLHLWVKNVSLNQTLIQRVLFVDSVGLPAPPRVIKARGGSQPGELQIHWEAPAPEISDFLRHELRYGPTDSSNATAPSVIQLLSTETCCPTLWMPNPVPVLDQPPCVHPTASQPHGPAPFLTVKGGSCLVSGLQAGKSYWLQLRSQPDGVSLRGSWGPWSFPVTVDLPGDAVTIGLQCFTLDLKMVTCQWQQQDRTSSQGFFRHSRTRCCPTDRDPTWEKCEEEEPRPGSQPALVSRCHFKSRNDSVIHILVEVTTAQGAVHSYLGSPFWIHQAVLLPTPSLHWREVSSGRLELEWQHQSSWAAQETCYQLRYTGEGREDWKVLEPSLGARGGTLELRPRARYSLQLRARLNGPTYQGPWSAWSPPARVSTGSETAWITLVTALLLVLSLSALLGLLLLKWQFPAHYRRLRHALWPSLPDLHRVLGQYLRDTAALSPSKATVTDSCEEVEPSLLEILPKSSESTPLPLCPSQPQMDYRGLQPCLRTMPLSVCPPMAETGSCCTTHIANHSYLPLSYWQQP

Consider “recombinant human TPO (from UniProt P40225 22-353) (ligand)”, for which the colonies of 3-5 large cells, mouse marrow in methylcellulose, 1 nM TPO #1-1 was found to be 15 colonies; the colonies of 3-5 large cells, mouse marrow in methylcellulose, 1 nM TPO #1-2 was 12 colonies; the colonies of 3-5 large cells, mouse marrow in methylcellulose, 1 nM TPO #2-1 amounted to 16 colonies; the colonies of 3-5 large cells, mouse marrow in methylcellulose, 1 nM TPO #2-2 turned out to be 13 colonies. In addition, the colonies of 6-12 large cells, mouse marrow in methylcellulose, 1 nM TPO #1-1 was 6 colonies; the colonies of 6-12 large cells, mouse marrow in methylcellulose, 1 nM TPO #1-2 worked out at 1 colonies; the colonies of 6-12 large cells, mouse marrow in methylcellulose, 1 nM TPO #2-1 was determined as 8 colonies; the colonies of 6-12 large cells, mouse marrow in methylcellulose, 1 nM TPO #2-2 was found to be 3 colonies.
